Measured values from patent US20240218057A1 (ROCKEFELLER UNIVERSITY, published 2024).
Substitutions are numbered along the chain they refer to.

B1: C947 (antibody, V domains shown)
VH: QVQLQESGPGLVRPSGTLSLTCAVTGGSISSSDCWSWVRQPPGKGLEWIGEICHGRTSNYNPSLKSPVSISVDKSKNQFSLILSSVTAADKAVYYCARSSRFLPPLPDAFDLWGQGTMVTVSS
VL: QSVLTQPPSVSGAPGQRVTISCTGSSSNIGAGYDVHWYKQLPGTAPKLLIYGNTNRPSGVPGRFSGSKSGTSASLAITGLQAEDEADYFCQSYDTRLSVVFGGGTKLT
B2: C1034 (antibody, V domains shown)
VH: QLQLQESGPGLVKPSETLSLTCTVSGGSVSSNNHYWGWIRQPPGKGLEWIGSISSSGSTHHNPSLRSRVTISVDTSKNHFSLKLNSVTATDTAVYYCARVDSSGWYTGDVFDVWGQGTMVTVSS
VL: DIQMTQSPSSLSASVGDRVTITCRASQTINNYLNWYQQKPGKPPKLLIYAAFSLHSGVPSRFSGSRSGTDFTLTISSLQPEDFATYYCQHSYSTMCSFGQGTKLEIK
B3: C1028 (antibody, V domains shown)
VH: QVQLVESGGGVVQPGRSLRLSCADSGFTFSSSGMHWVRQAPGKGLEWVGVISYDGGNKYYADSVKGRFTISRDNSKNTLYLQMNSLRAEDTAVYYCAKDTPGGDDIMTGWGLYGMDVWGQGTTVTVSS
VL: DIQMTQSPSSLSASVEDRVTITCRASQSISSYLNWYQQKPGKAPKLLIYAAISLQSGVPSRFSGSGSGTEFTLTISSLQPEDFATYYCQQSYTTPWAFGQGTKVEIK
B4: C1031 (antibody, V domains shown)
VH: QLQLQESGPGLVKPSETLSLTCTVSGGSINTSTYYWGWIRQPPGKGLEWIGNIYYSGITYYNPSLKSRVTISVDTSKNQFSLKLRSVTAADTAVYYCARQHRFGSGSSELLWGQGTLVTVSS
VL: QSALTQPPSASGSPGQSVTISCTGTSSDVGSYNYVSWYQQHPGKAPKLMIYEVTKRPSGVPDRFSGSKSGNTASLTVSGLQADDEADYYCSSYAGSSNLVFGGGTKLTV
B5: C939 (antibody, V domains shown)
VH: QVQLVESGGGVVQPGRSLRLSCAASGFTFSSYAMHWVRQAPGKGLESVALISHDGSNKYHADSVKGRLTISRDTSKNTLYLQMDSLRPEDTAVYYCASGLLWFETAGGSGAPDYGMAVWGQGTTVTVSS
VL: DIQMTQSPSSLSASVGDRVTITCRASQSISTYLNWYQQKPGRAPKFLIYAASSLQSGVPSRFSGSGSGTDFTLIISGLQPEDFATYFCQQSYNTPLTFGGGTKVEIK
B6: C941 (antibody, V domains shown)
VH: QVQLVQSGAEVKKPGSSVKVSCKASGGTSRSYPISWVRQAPGQGLEWMGRIIPIVGTANYAQRFQGRVTITADESTGTAYMELSSLRSEDTAVYYCARNRGYSDYGSVYYFDYWGQGTLVTVSS
VL: QSVLTQPPSVSGAPGQRVTISCTGSSSNIGAGYDVHWYQQLPGAAPKLLIYRNINRPSGVPDRFSGSKSGTSASLAITGLQADDEADYYCQSYDSSLSGSVFGGGTKLTV
B7: C943 (antibody, V domains shown)
VH: QVQLVESGGGVVQPGRSLRLSCAASGFPFSSFGMHWVRQAPGRGLEWVALILYDGDNKYYADSVKGRFTISRDNSKNTLYLQMNSLRAEDTAVYYCAKDIGGGSSPPFFDYWGQGTLVTVSS
VL: SYELTQAPSVSLAPGKTARITCGENNIGSKSVHWYQQKPGQAPVLVIYYDSDRPSGIPERFSGSNSGNTATLTISRVEAGDEADYYCQVWDSSSDHVMFGGGTKLTVL
B8: C1025 (antibody, V domains shown)
VH: EVQLVESGGGLVQPGRSLRLSCAASGFTFDDYAMHWVRQVPGKGLEWVSGVSWNGDSVGYADSMEGRFTISRDNAKNSLYLQMNSLRTEDTALYYCAKGVDYSSSSNFDFWGQGTLVTVSS
VL: DIQMTQSPSSVSASVGDRVTITCRASQGISSWLAWYQQKPGKAPKLLISLASSLQSGVPSRFSGSGSETDFTLIISSLQPEDFATYYCQQSSSFPLTFGGGTKVEIK
B9: C1032 (antibody, V domains shown)
VH: EVQLVESGGSLVKPGGSLRLSCVASGLTFNHAWMSWVRQAPGKGLEWVGRIKSKIDGGTTDYAAPVKGRFTISRDDSKSTQYLQMNSLKTEDTAVYYCTTDCFWRLGGTTCYEHDAFDVWGQGTMVTVS
VL: DIQMTQSPSSLSASVGDRVTITCRASQAIATFLNWYQQKPGKAPKLLIYAASSLQSGVPSRFSGSGSGTDFTLTISSLQPEDFATYYCQQSYNSLHFGGGTKVEIK
B10: C951 (antibody, V domains shown)
VH: QVQLQESGPRLVKPSGTLSLTCAVSGGSISTTNWWSWVRQPPGKGLEWIGEIHHSGNTNYNPSLKSRVTISVDRSKNQFSLKLSSVTAADTAVYFCARDGGRPGDPFDIWGQGTMVTVSS
VL: QSALTQPASVSGSPGQSITISCTGTSSDVGGYNYVSWYQQHPGKAPNLMIYDVSDRPSGVSNRFSGSKSGNTASLTISGLQAEDEADYYCNSFTSNSTRVFGTGTKVTV
B11: C948 (antibody, V domains shown)
VH: EVQLVESGGGLVQPGGSLRLSCAASGFTFSRYDMHWVRQATGKGLEWVSIIGTAGDTYYPGSVKGRFTISRDNAKNSLFLQMNSLRAGDTAVYYCARANYDSSGYHNWFDPWGQGTLVTVSS
VL: DIQMTQSPSSLSASIGDRVTITCRASQNINSYLNWYQQKPGKAPKLLIYAASSLQSGVPSRFSGSGSGTDFTLTINSLQPEDFATYYCQQSYSMPSWTFGQGTKVEI
B12: C944 (antibody, V domains shown)
VH: QVQLVESGGGVVQPGRSLRLSCAASGFTFSSYGMHWVRQAPGKGLEWVAVISYDGSYKYYADSVKGRFTISRDNSKNTLYLQMNSLRAEDTAVYYCAKGSGSQLYYYYGMDVWGQGTTVTVSS
VL: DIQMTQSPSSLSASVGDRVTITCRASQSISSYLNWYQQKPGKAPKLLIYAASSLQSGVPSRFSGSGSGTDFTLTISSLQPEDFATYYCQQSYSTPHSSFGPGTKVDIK
B13: C942 (antibody, V domains shown)
VH: QVQLVESGGGVVQPGRSLRLSCAASGFTFSSYVMHWVRQAPGKGLEWVAIISSDGNTKYYADSVKGRFTISRDNSKNTLYLQMNSVRTDDTAVYYCARDGTTMTPTDLLTDWGQGTLVTVSS
VL: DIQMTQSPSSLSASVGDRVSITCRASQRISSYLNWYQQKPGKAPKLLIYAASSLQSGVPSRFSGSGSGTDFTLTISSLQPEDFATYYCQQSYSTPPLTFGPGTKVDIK
B14: C945 (antibody, V domains shown)
VH: QVQLVQSGAEVKKPGASVRISCKASGYTFTNYYMHWVRQAPGQGLEWMGIINPSGGSTTYAPKFQARVTMTRDTSTSTVYMELSSLRSDDTAVYYCARDYVLVPARSGMDVWGQGTTVTVS
VL: EIVLTQSPATLSLSPGERATLSCRASQSVSSYLAWYQQKPGQAPRLLIYDASNRATGIPARFSGSGSGTDFTLTISSLEPEDFAIYYCQQRSNWPYTFGQGTKLEIK
B15: C1041 (antibody, V domains shown)
VH: QVQLVQSGAEVKKPGASVKVSCKASGYTFSDHYIYWVRQAPGQGLEWMGIINPSAGSTSYAQKFQGRVTMTRDTSTSTVYMELSSLRSEDTAVYYCARDIVFVPATMAMDVWGLGTTVTVSS
VL: B14 VL with S31R, I85V, P95L, Y96F, Q100P, L104V, E105D
B16: C1042 (antibody, V domains shown)
VH: B15 VH with A55G, R87K, A97S, L114Q
VL: B14 VL with S31R, I85V, P95L, Y96F, Q100P, L104V, E105D
B17: C946 (antibody, V domains shown)
VH: QVQLVQSGAEVKKPGASVKVSCKASGYTFTNYYIHWVRQAPGQGLEWMGIINPDGDSTSYVQKFQGRVTMTRDTSTSTVYMELSSLRSEDTAVYYCARDLVFVPATSAMDVWGKGTTVTVSS
VL: B14 VL with I85V, P95L, Y96F, Q100P, L104V, E105D
B18: C1029 (antibody, V domains shown)
VH: QVQLVESGGGVVQPGRSLRLSCAASGFTFSSFGMHWVRQAPGKGLEWVAVISYDGSYKDYGDSVKGRFTISRDNSKNTLYLQMNSLRAEDTAVYYCARDSNVDTVMVTWFDYWGRGTLVTVSS
VL: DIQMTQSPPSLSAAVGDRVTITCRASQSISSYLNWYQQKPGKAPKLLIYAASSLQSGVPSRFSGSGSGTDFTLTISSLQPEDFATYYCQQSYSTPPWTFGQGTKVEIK
B19: C949 (antibody, V domains shown)
VH: QVQLQESGPGLVKPLQTLSLTCTVSGGSISNGDYYWSWIRQSPGKGLEWIGNIFYSGATYFNPSLKSRVTLSVDTSKNQFSLKLSSVTAADTAVYYCARVVRVLPAASVDCWGQGTLVTVSS
VL: QSALTQPRSVSGSPGQSVPISCTGTSSDVGGYDYVSWYQQHPGKAPKLIIYDVSERPSGVPDRFSGSKSGNTASLTISGLQAEDEATYYCCSYAGTSVMFGGGTKLTVL
B20: C1026 (antibody, V domains shown)
VH: QVQLVESGGGVVQPGKSLRLSCAASGFIFSSYSMHWVRQAPGKGLEWVAVVSNDGSGKFYADSVRGRFTIFRDNSKNTLYLQVSSLRAEDTAVYYCARDALTSISVLFDCWGQGTLVTVSS
VL: DIQMTQSPSSLSASLGDRVTITCRASQSISNYLNWYQQKPGKAPKLLIYGASSLQSGVPSRFSGSGSGTDFTLTISNLQPEDFATYFCQQSYSTPSVTFGGGTKVEIK
B21: C940 (antibody, V domains shown)
VH: QVQLQESGSGLVKPSQTLSLTCAVSGGSASSGGYSWSWIRQPPGKGLEWIGYIYHSGSTYYNPSLKSRVTISLDRTKKQFSLKLSSVTAADTAVYYCARFCLSGSHYLFAFDIWGPGTMVTVSS
VL: QSALTQPASVSGSPGQSITISCTATSSDVGGYNFVSWYQQYPGKVPKLLIYDVGNRPSGVSNRFSGSKSGNTASLTISGLQAEDEADYYCSSYTNSSTFFGGGTKLTVL
B22: C1033 (antibody, V domains shown)
VH: QVQLVQSGAEVKKPGSSVKVSCKASGGTFSRNVISWVRQAPGQGLEWMGGIIPMFGTANYAQKFQGRVTISADESTSTAYMELSSLRSEDTAVYYCAREDFILESAPIRENSYYYYGMDVWGQGTTVTVSS
VL: EIVLTQSPGTLSLSPGERATLSCRASQSVSSNYLAWYQQKPGQAPRLLIYDASSRATGIPDRFSGSGSGTDFTLTIRRLEPEDFAVYYCQQYGGSPRTFGQGTKVEIK
B23: C1030 (antibody, V domains shown)
VH: EVQLVESGGGLVQPGGSLRLSCEASGVIVSSNYMNWVRQAPGKGPEWVSVLYAGGSTFYADSVKGRFTISRDDSKNTLFLQMNNLRAEDTAVYFCARDLIAFGMDVWGQGTTVTVSS
VL: DIQLTQSPSFLSASVGDRVTITCRASQGINSDLAWYQQKPGKAPKLLIYGASTLQSGVPSRFSGSGSGTEFSLTVSSLQPEDFATYYCQQLNSYRRFGGGTKVEIK
B24: C1027 (antibody, V domains shown)
VH: EVQLVESGGGLVQPGGSLRLSCAASGFIVTTNYMSWVRQAPGKGLEWVSLIYPGGSTFYADSVEGRFTISRDNSKNTLYLQVNSLRVEDTAVYYCARDTFGRGDDHWGQGTLVTVSS
VL: DIQMTQSPSSLSASVGDRVTITCQASQDINIYLNWYQQRPGKAPKLLIYDASNLQTGVPSRFSGSGSGTDFTITISSLQPEDIATYYCQQYDNLPRSFGQGTKLEI

target: T1, SARS-COV-2 RBD (SARS-COV-2, UniProt P0DTC2 319-539); experiment: ELISA, RBD coated on plate
T1 construct: also called WT RBD

Row | Binder | EC50 [ng/mL]
1 | B1 | 2.08
2 | B2 | 2.77
3 | B3 | 3.58
4 | B4 | 7.23
5 | B5 | 3.62
6 | B6 | 0.88
7 | B7 | 2.59
8 | B8 | 2.51
9 | B9 | 2.89
10 | B10 | 0.81
11 | B11 | 3.26
12 | B12 | 1.71
13 | B13 | 1.35
14 | B14 | 3.13
15 | B15 | 3.65
16 | B16 | 4.55
17 | B17 | 3.82
18 | B18 | 2.86
19 | B19 | 2.33
20 | B20 | 2.5
21 | B21 | 1.8
22 | B22 | 3.63
23 | B23 | 2.78
24 | B24 | 2.42
